Measured values from the nanobody polyreactivity screen of Harvey et al. (2022).

Assay: yeast display, Sf9 membrane polyspecificity reagent, FACS + sequencing; frameworks hold sequencing errors
In short: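 Using colony PCR, genes from sorted yeast display clones were amplified, then sequenced on MiSeq at 2 × 250 and filtered by CDR length. The clones had been stained with 10% biotinylated, detergent-solubilized Sf9 membrane reagent for 1 hour at 4 °C and sorted by FACS into low and high (top ~1%) gates on anti-HA and streptavidin fluorescence. Polyreactivity labels come from the gate of origin.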

Sequence: QVQLVDSGGCLVQAGGSLRLSCASSGRIIAHYAMGWYRQSPGKESELVAAISTRGGSTYYADSVKGRFTISRDNEKNTVYLQMNSLKPEDTAVYYCAAKSNNIATMDYWGQGTQVTVSS
- polyreactivity (PSR sort gate): low polyreactivity

Sequence: QVQLVESGGGLVQAGGSLRLSCAASGSTLVGNAMGWYRQAPGKERELVAAISSSGTSTYYADSVKGRFTISRDNAKNTVYLQMNSLKPEDTAVYYCAAYVYGVGMDYWGQGTQVTVSS
- polyreactivity (PSR sort gate): high polyreactivity

Sequence: QVQLVDSGGGLVQAGGSLRLSCAASGFIFRSYALGWYRQAPGKERELVAAISRRGGSTYYADSVKGRFTISRDHAKNTVYLQMNSLKPEDTAVYYCAAESRGVYGYAQSDFWGQGTQVTVSS
- polyreactivity (PSR sort gate): high polyreactivity

Sequence: QVQLVESGGGLVQAGGSLRLSCAASGSIFGSYTMGWYRQAPGKEREFVAAINFSGGRTYYADSVKGRFTISRDNAKNTVYLQMNSLKPEDTAVYYCARRWRQARYDYWGQGTQVTVSS
- polyreactivity (PSR sort gate): high polyreactivity

Sequence: QVQLVESGGGLVQAGGSLRLSCAASGSTFYYYTMGWYRQAPGKERELVAISWDGDSTYSADSVKGRFTISRDNAKNTVYLQMNSLKPEDTAVYYCAAADYYLPDDVSDYVDANFDYWGQGTQVTVSS
- polyreactivity (PSR sort gate): low polyreactivity

Sequence: QVQLVESGGGLVQAGGSLRLSCAASGSIFWQNAMGWYRQAPGKERELVARITSGGSTNYADSVKGRFTISRDNAKNTFYLQMNSLKPEDTGVYYCNRVRYRSYFAYYYWGQGTQVTVSS
- polyreactivity (PSR sort gate): high polyreactivity

Sequence: QVQLVESGGGLVQAGGSLRLSCAASGLTFGPYAMGWYRQAPGKERELVAAISLSDTDTYYAASVKGRFTISRDNAKNTGYLQMNSLKPEDTAVYYCAAEDGGLYDYWGQGTQVTVSA
- polyreactivity (PSR sort gate): high polyreactivity

Sequence: QVQLVESGGGLVQAGGSLRLSCAASGSTSPNAMGWYRQAPGKERELVAAIWSGGTYYADSVKGRFTISRDNAKNTVYLQMNSLKPEDTAVYYCAVTGVYRGFRYGYWGQGTQVTVSS
- polyreactivity (PSR sort gate): low polyreactivity

Sequence: QVQLVESGGGLVQPGCSLRLSCAASGSIFYAYDMGWYRQSPGKERQLVAAISWSGGTTYYADSVKGRFTISRDNAKNTVYLQMNSLIPEDTAVYYCAAREYYTDVHGTRRYDYWGQGTQVTVSS
- polyreactivity (PSR sort gate): low polyreactivity

Sequence: QVQLVESGGGLVQAGGSLRLSCAASGLTFWRYAMGWYRQAPGKERELVAGISSSTGSTYYADSVKGRFTISRDNAKNTVYLQMNSLKPEDTAVYYCNAYVRRIVRSYYWGQGTQVTVSS
- polyreactivity (PSR sort gate): high polyreactivity

Sequence: QVQLVESGGGLVQAGGSLRLSFAASGRTFGEYTMGWYRQATGKERELVAAISSAGRTNYADSVKGRFTISRDNAKNTVYLQMNSLKPEDTAVYYCAADWTDDVPGYDYWGQGTQVTVSS
- polyreactivity (PSR sort gate): low polyreactivity

Sequence: QVQLEESGGGLVQAGASLRLSCAASGRTFGSYAMGWYRQAPGKERELVAAISLSAGSTYYADSVKGRFTISRDNAKNTVYLQMNSLKPEDTAVYYCAAGTQWYSHVFIYYYWGQGTQVTVSS
- polyreactivity (PSR sort gate): low polyreactivity

Sequence: QVQLVESGGVLVQAGGSLRLSCAASGSIFILYAMGWYRQAPGKERELVAAISSTGTTYYADSVKGRFTISRDNAKNTVYLQMNSLKPEDTAVYYCATDEHSSGRTPYDYWGQGTQVTVSS
- polyreactivity (PSR sort gate): low polyreactivity

Sequence: QVQLVESGGGLVQAGGSLRLSCAAYGRTFGLYAMGWYRQAPGKERELVAAISWGGGRTYYADSVKGRFTISRDNAKHTVYLQMNSLKPEDTAVFYCNAVYSPRYYVGGYDYWGQGTQVTVSS
- polyreactivity (PSR sort gate): high polyreactivity

Sequence: QVQLVESGGGLVQAGGSLRLSCAASGFIFGQYAMGWYRQAPGKERELVAAISWSGGRTNYADSVKGRFTISRDNAKNTVYLQMNSLKPEDTAVYYCAARKGKYPQYTYGYWGQGTQVTVSS
- polyreactivity (PSR sort gate): high polyreactivity

Sequence: QVQLVESGGGVVQAGGSLRLSCAASGTIFYENAMGWYRQAPGKEREFVATIDLIGDRTYYADSVKGRFTISRDNAKNTVYLQMNSLKPEDTAVYYCAAERVGVFFRYDYWGQGTQVTVSS
- polyreactivity (PSR sort gate): low polyreactivity

Sequence: QVQLVESGGGLVQAGGSLRLSCAASGRIITKYTMGWYRQAPGKERELVAAISRSDRTNYADSVKGRFTISRDNAKNTVYLQMNSLKPEDTAVYYCAAQFTVLWYEYYYWGQGTQVTVSS
- polyreactivity (PSR sort gate): high polyreactivity

Sequence: QVQLVESGGGLVQAGGSLRLSCAASGSIFYPYAMGRYRQAPGKERELVASIRSRRGTTFYADSVKGRFTISRDNAKNTVYLQMNSLKPEDTAVYYCAVDNWSSSYYWWVDKLGGSDYWGQGTQVTVSS
- polyreactivity (PSR sort gate): low polyreactivity

Sequence: QVQLEDSGGGLVQAGGSLRLTSPASGSIFWYYDMGWYRQAPGKERELVAAITVIGSSTNYADSVKGRFTNSRDNAKITVYLQMNRLKPEDTAVYYCAAVRPPTPSRRREDYWGQGTQVTVSS
- polyreactivity (PSR sort gate): low polyreactivity

Sequence: QDQLVESGGGLVQAGVSLRISCAASGFTFRGNAMGWYRQAPGKERELVAAITSSDDSTYYADSVKGRFTNSRDNAKNTVYLQMNSLKPEDTAVYYCAAVANGYWTYEYWGQGTQVTVSS
- polyreactivity (PSR sort gate): low polyreactivity

Sequence: QVQLVESGGGLVQAGGSLRLSCAASGSILRPNAMGWYRQAPGKERELVAAITTSGGSTYYADSVKGRFTISRDNAKNTVYLQMNSLKPEDTAVYYCAARRQRDRYGYWGQGTQVTVSS
- polyreactivity (PSR sort gate): high polyreactivity

Sequence: QVHLQESGGGLEQAGGSLSPSCAASGSISNGVPMGWYRQAPGEERELVATTVLGATTNYADSVKGRFTISRGNAKNPVYLQMNSLKPEETAVYYCAAPLRYDKGFSYWGQGTQVTVSS
- polyreactivity (PSR sort gate): low polyreactivity

Sequence: QVQLVESGGGLVQAGGSLRLSCAASGFTLAWNAMGWYRQAPGKERELVATISRSGSSTSYADSVKGRFTISRDTAKNTVYLQMNSLKPEDTAVYYCAADRYTVRMDYWGQGTQVTVSS
- polyreactivity (PSR sort gate): high polyreactivity

Sequence: QVQLVESGGGLVQAGGSLRLSSAASGRIFPFNAMGWYRQAPGKERELVAAITSSGGRTYYADSVKGRFTISRDNAKNTVYLQMNSLTPEDTAVYYCAGTLVRRARSGPMGYWGQGTQVTVSS
- polyreactivity (PSR sort gate): high polyreactivity

Sequence: QVQLQESGGGLMQAGGNLRLSCAASGYISTHYDMDWSRQAPGKERELVARIDDGAITNYADSVKGRFTISRDNATNTVYLQMNSLKPEDTAVYYCAVYSGDDYYHDYWGQGTQVTVSS
- polyreactivity (PSR sort gate): low polyreactivity

Sequence: QVQLVESGGGLVQAGGSLRLSCAASGSTFYPYAMGWYRPAPGKERELVAGITSSGGSTYYADSVKGRFTISRDNAKNTVYLQMISLKPEDTAVYYCNAYIDALPVSYQYDYWGQGTQVTVSS
- polyreactivity (PSR sort gate): low polyreactivity

Sequence: QVQLVESGGGLVQAGGSLRLSCAASGRILGYNAMGWYRQAPGKERELVAAITSGGSTYYADSVKGRFTISRDNAKNTVYLQMNRLKPEDTAVYYCAKRAFSYVGGQQDRNENYYYWGQGTQVTVSS
- polyreactivity (PSR sort gate): high polyreactivity

Sequence: QVQLVESGGGLVQAGGSLRLSCAASGRIFLGYAMGWYRQAPGKERELVARITLIGGGTNYADSVKGRFTISRDNAKNTVYLQMNSLKPEDTAVYYCAAKSPLRPWWVGAVSGNYWGQGTQVTVSS
- polyreactivity (PSR sort gate): low polyreactivity

Sequence: QFQLVESGGGLVQAGGSLRLSCAASGITFTFNARGWYRQAPGKERELVAAITWSGGSPFYADSVKGRFTISRDNAKNTVYLQLNSLNPEDTAVYYCARDTELYVRWLDYWGQGTQVTVSS
- polyreactivity (PSR sort gate): low polyreactivity

Sequence: QVQLVESGGGLVQAGGSLRLSCAASGLTFYSYARGWYRQAPGKERELVATISGGGSTTYADSVKGRFTISRDNAKNTVYLQMNSLKPEDTAVYYCAAGYFLPVVWSTTNYIYDYWGQGTQVTVSS
- polyreactivity (PSR sort gate): high polyreactivity

Sequence: QVQLVESGGGLVQAGGSLRLSCAASGGIFSYNAMGSYRQAPGKERELVATISYSGGSTFYADSVKGRFTISRDNAKNTVYLQMNSLKPEDTAVYYCARPSYTSGYQSYDYWGQGTQVTVSS
- polyreactivity (PSR sort gate): low polyreactivity

Sequence: QVQLVETGGGLVQAVGSLRLSCAASGYTFLLYAMGWYRQAPGKERELVASISWNVGSTYYADSVKGRFTISRDNAKNTVYLQMNSLKPEDTAVYYCARGYERPRVATFHRFDYWGLGTQVTVSS
- polyreactivity (PSR sort gate): low polyreactivity

Sequence: QVQLVESGGGLVQAGGSLRLSCAASGRTFWGNAMGWYRQAPGKEREFVAGITQSDGSTYYADSVKGRFTISRDNAKNTVYLQMNSLKPEDTAVYYCAATPYSTQGLRPKFDYWGQGTQVTVSS
- polyreactivity (PSR sort gate): low polyreactivity

Sequence: QVQLVESGGGLVQAGGSLRLSCAASGFTFSTNAMGWYRPAPGKEREVVAAITWRGGSTYYADSVKGRFTISRDNAKNTVYLQMNSLKPEDTAVYYCARRYRGSHVSYYKKFDYWGQGTQVTVSS
- polyreactivity (PSR sort gate): low polyreactivity

Sequence: QVQLVESGGGLVQAGGSLRLSCAASGLILDYNDMGWYRQAPGKERELVASITGGGSTYYADSVKGRFTISRDNAKNTVYLQMNSLKPEDTAVYYCNADPVGVYGFDLDYWGQGTQVTVSS
- polyreactivity (PSR sort gate): low polyreactivity

Sequence: QVQLVESGGGLVQAGGSLRLSCAASGIIFGRYTMGWYRQAPGKERELVAAITSSGITYYADSVKGRFTISRDNAKNTVYLQMNSLKPEDTAVYYCAAEYNWYDYWGQGTQVTVSS
- polyreactivity (PSR sort gate): low polyreactivity

Sequence: QVQIVESGGGLVQAGGSLRLSCAASGSIFGTNTMGWYRPAPGKEWEFVAAIRLSDSSTYYADSVKWRFTISRDNAKNTVYLQMNSLKPEDTEVYYCAVDYRAYHYYLYDYWGQGTQVTVSS
- polyreactivity (PSR sort gate): low polyreactivity

Sequence: QVQLVESGGGLVQAGGSLRLSCAASGSIFYINDMGWYRQAPGKERELVASINSSGDSTYYADSVKGRFTISRDNAKNTVYLQMNSLKPEDTAVYYCAADDGYPIQEYDYWGQGTQVTVSS
- polyreactivity (PSR sort gate): low polyreactivity

Sequence: QVQLVESGGGLVQAGGSLRLSCAASGRTFYLYAMGWYRQAPGKERELVADISWDGDSTYYADSVKGRFTISRDNAKNTVYLQMNSLKPEDTAVYYCAADYFYYYEQYLWYTYDYWGQGTQVTVSS
- polyreactivity (PSR sort gate): high polyreactivity

Sequence: QVQLVESGGGLVQAGGSLRLSCAASGYTFRTNVMGWYRQAPGKERELVATINWRGGSTYYADSVKGRFTISRDNAKNTVYLQMNSLKPEDTAVYYCAKTYRYYRTMDYWGQGTQVTVSS
- polyreactivity (PSR sort gate): low polyreactivity

Sequence: QVQLVESGGGLIQAGGSLRLSCAASGSTFPYYAMGWYRQAPVKEREFVAAIRFSGSSTYDADSVKGRYTISRDYAKTTVYLQMNSLNREDTAVYYCATDYWLPSFSYDYWGQGTQVTVSS
- polyreactivity (PSR sort gate): low polyreactivity

Sequence: QVQLEESGGGLVQAGGSLRLSCAASGITFGFYAMGWYRQAPGKERELVASITWRGGSTYYADSVKGRFTISRVNAKNTVYLHMNSLKPEDTAVYYCAAEQYVFRPRAQEITSYDYWGQGTQVTVSS
- polyreactivity (PSR sort gate): high polyreactivity

Sequence: QVQLVESGGGVLQAGGSLRLSCAASGRIFYRYPMGWYRKAPGKVRELVAAISGSVGSTYADSVKGRLTISRDNAKNTVYLQMKSMKPEDTAVYYFDRETYRRYGAYDYWGQGTQVTVSS
- polyreactivity (PSR sort gate): low polyreactivity
